Experimental data reported in patent publication US20090311248A1 (published 2009).

Columns and labels:
[1] = biological target: T1, IGP 2138 (Hepatitis C virus (HCV)); assay: ELISA, […], antibody at 1.25 µg/mL
T1 construct: also called WDMMMNW

[2] = biological target: T2, IGP 2241 (Hepatitis C virus (HCV)); assay: ELISA, […], antibody at 1.25 µg/mL
T2 construct: E1 peptide

[3] = biological target: T3, IGP 2137 (Hepatitis C virus (HCV)); assay: ELISA, […], antibody at 1.25 µg/mL
T3 construct: also called RMAWDM

[4] = biological target: HCV E1 envelope glycoprotein of genotype 4a (strain ED43) on retroviral pseudoparticles (Hepatitis C virus genotype 4a, UniProt O39929 1-3008); assay: cell-based or functional assay
[5] = biological target: HCV E1 envelope glycoprotein of genotype 2a (pJ6CF) on retroviral pseudoparticles (Hepatitis C virus genotype 2a, UniProt P26660 1-3033); assay: cell-based or functional assay
[6] = biological target: HCV E1 envelope glycoprotein of genotype 1b (HCCl 66) on retroviral pseudoparticles (Hepatitis C virus genotype 1b); assay: cell-based or functional assay
[7] = biological target: HCV E1 envelope glycoprotein of genotype 3a (strain S52) on retroviral pseudoparticles (Hepatitis C virus genotype 3a); assay: cell-based or functional assay
[8] = biological target: HCV E1 envelope glycoprotein of genotype 5a (strain SA13) on retroviral pseudoparticles (Hepatitis C virus genotype 5a, UniProt O91936 1-3014); assay: cell-based or functional assay
[9] = biological target: HCV E1 envelope glycoprotein of genotype 1a strain H77 on retroviral pseudoparticles (HCVpp) (Hepatitis C virus genotype 1a strain H77, UniProt P27958 1-3011); assay: cell-based or functional assay
HCV E1 envelope glycoprotein of genotype 1a strain H77 on retroviral pseudoparticles (HCVpp), sequence (P27958 whole entry): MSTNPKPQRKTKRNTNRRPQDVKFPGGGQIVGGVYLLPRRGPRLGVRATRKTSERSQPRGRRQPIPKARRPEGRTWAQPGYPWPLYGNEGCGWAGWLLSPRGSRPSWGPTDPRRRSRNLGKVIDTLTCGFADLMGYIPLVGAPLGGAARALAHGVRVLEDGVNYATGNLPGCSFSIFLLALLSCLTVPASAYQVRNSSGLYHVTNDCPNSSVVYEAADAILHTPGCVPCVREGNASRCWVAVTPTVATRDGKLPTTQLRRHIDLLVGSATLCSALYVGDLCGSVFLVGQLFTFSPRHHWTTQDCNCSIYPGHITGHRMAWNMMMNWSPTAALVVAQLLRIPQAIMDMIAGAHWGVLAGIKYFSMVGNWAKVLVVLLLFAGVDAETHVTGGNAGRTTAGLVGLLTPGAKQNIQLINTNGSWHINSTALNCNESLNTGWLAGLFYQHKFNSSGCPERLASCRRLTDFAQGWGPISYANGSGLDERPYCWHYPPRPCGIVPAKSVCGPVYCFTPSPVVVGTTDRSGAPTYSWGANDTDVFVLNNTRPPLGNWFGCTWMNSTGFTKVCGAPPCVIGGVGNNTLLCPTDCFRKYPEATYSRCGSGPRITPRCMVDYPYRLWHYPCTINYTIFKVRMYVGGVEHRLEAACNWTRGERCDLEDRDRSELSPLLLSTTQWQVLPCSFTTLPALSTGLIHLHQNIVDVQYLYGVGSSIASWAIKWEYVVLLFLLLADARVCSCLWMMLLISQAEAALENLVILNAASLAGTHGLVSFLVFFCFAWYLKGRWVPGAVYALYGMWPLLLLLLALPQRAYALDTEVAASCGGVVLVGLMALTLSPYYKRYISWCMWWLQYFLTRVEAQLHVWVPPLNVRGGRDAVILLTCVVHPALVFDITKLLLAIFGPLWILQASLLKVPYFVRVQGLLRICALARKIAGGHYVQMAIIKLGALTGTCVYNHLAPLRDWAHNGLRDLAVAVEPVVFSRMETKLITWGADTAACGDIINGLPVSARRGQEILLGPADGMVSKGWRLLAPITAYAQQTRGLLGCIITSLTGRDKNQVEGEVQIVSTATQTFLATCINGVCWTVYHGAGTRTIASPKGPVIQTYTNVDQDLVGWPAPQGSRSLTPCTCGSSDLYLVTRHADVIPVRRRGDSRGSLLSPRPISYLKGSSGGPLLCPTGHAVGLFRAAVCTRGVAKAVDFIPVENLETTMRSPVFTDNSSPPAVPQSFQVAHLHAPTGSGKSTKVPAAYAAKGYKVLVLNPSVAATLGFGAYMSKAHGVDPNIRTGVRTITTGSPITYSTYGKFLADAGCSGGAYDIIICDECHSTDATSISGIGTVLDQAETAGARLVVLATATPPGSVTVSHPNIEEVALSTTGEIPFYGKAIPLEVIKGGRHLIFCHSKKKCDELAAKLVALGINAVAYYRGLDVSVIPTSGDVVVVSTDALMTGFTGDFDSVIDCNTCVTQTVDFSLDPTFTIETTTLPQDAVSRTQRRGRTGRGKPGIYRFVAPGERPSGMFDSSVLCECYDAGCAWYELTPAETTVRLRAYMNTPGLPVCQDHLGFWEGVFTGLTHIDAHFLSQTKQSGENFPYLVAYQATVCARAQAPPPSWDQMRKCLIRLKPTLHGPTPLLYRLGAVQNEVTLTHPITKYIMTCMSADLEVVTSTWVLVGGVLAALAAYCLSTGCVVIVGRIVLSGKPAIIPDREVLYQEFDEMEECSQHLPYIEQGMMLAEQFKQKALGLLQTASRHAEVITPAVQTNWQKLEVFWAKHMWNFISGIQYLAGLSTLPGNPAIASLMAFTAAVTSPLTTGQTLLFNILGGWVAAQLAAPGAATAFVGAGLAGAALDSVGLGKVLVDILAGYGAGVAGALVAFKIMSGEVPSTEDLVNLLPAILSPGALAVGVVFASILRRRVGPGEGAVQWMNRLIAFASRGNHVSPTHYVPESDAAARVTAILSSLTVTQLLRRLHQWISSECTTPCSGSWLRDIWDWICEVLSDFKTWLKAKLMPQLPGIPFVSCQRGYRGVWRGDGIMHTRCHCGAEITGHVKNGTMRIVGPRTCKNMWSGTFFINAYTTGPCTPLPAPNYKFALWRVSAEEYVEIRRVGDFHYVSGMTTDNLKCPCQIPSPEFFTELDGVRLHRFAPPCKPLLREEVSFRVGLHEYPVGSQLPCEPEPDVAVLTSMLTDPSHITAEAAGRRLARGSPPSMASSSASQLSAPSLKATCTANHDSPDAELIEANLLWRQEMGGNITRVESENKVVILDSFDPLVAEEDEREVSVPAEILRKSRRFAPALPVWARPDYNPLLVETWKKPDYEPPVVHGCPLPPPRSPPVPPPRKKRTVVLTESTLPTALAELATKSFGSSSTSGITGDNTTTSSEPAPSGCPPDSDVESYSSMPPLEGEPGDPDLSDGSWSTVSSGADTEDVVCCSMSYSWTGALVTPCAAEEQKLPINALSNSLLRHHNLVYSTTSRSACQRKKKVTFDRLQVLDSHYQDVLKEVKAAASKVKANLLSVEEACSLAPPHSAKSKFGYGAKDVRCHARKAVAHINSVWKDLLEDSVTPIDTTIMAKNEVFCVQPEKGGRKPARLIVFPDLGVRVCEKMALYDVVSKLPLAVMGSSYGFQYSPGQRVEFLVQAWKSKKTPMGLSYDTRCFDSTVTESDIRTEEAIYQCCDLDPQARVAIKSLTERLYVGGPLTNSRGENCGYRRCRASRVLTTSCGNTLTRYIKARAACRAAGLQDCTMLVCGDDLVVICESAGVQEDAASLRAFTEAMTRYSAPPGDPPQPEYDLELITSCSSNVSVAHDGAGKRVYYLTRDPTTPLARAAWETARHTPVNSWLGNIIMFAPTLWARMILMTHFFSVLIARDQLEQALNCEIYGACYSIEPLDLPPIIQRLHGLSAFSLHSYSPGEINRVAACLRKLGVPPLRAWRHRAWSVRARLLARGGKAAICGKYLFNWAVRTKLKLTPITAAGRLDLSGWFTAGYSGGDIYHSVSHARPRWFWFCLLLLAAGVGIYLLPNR

[10] = biological target: HCV E1 envelope glycoprotein of genotype 6a (strain HK-6a) on retroviral pseudoparticles (Hepatitis C virus genotype 6a); assay: cell-based or functional assay
[11] = biological target: IGP 2254 (Hepatitis C virus (HCV), N-terminal Biotin; C-terminal -CONH2); assay: BIAcore, antibody immobilized, peptide IGP 2254 in solution

B1: 48G5 (antibody, V domains shown)
VH: QVQLVQSGAEVKRPGASVKVSCKASGYTFTSYAIHWVRQAPGQRLEWMGWINPGNGNAKYSQRFQGRVIISRDTSATTSYMELSSLTSEDTAVYSCARDRGFDLLTGHYLGLDPWGQGTLVTVSS
VL: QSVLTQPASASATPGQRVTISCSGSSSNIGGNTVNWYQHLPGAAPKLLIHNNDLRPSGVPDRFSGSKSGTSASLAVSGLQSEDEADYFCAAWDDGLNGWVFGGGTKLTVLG
notes: also called 48G5C4; IGH 526
- binding result [1]: no binding (tested: 1.25 µg/ml)
- binding result [2]: no binding (tested: 1.25 µg/ml)
- binding result [3]: no binding (tested: 1.25 µg/ml)
- lowest concentration of antibody in µg/ml exhibiting at least 50% neutralization (HCVpp) [4]: 6.2 µg/mL
- lowest concentration of antibody in µg/ml exhibiting at least 50% neutralization (HCVpp) [5]: 50 µg/mL
- lowest concentration of antibody in µg/ml exhibiting at least 50% neutralization (HCVpp) [6]: 12.5 µg/mL
- lowest concentration of antibody in µg/ml exhibiting at least 50% neutralization (HCVpp) [7]: > 50 µg/mL
- lowest concentration of antibody in µg/ml exhibiting at least 50% neutralization (HCVpp) [8]: 1.6 µg/mL
- lowest concentration of antibody in µg/ml exhibiting at least 50% neutralization (HCVpp) [9]: < 1 µg/mL
- lowest concentration of antibody in µg/ml exhibiting at least 50% neutralization (HCVpp) [10]: 3.1 µg/mL
- Kd [11]: 200 pM
- koff [11]: 0.000305 s⁻¹
- kon [11]: 1.54e+06 M⁻¹ s⁻¹

B2: 17H1 (antibody, V domains shown)
VH: QVQFVQSGAEVKKPGASVKVSCKASGYTFTRHAIHWVRQAPGQRLEWMGWINPGNGNAKYSQKFQGRVTITRDTPASTVYMELSSLRSEDMGVYYCARDGGYSHDYSYFYGLDVWGPGTTVIVSS
VL: QSVLTQPPSASGTPGQRVTISCSGSSSNIGGNFVDWYQQFPGTAPKLLIYTNDQRPSGVPARFSGSKSGTSASLAISGLRSEDEADYYCAAWDDIVNGWVFGGGTKLTVRG
notes: also called 17H1D9; IGH 520
- lowest concentration of antibody in µg/ml exhibiting at least 50% neutralization (HCVpp) [4]: < 1 µg/mL
- lowest concentration of antibody in µg/ml exhibiting at least 50% neutralization (HCVpp) [5]: 50 µg/mL
- lowest concentration of antibody in µg/ml exhibiting at least 50% neutralization (HCVpp) [6]: 6.2 µg/mL
- lowest concentration of antibody in µg/ml exhibiting at least 50% neutralization (HCVpp) [7]: < 50 µg/mL
- lowest concentration of antibody in µg/ml exhibiting at least 50% neutralization (HCVpp) [8]: < 1 µg/mL
- lowest concentration of antibody in µg/ml exhibiting at least 50% neutralization (HCVpp) [9]: 3.1 µg/mL
- lowest concentration of antibody in µg/ml exhibiting at least 50% neutralization (HCVpp) [10]: 6.2 µg/mL
- Kd [11]: 150 pM
- koff [11]: 0.000357 s⁻¹
- kon [11]: 2.35e+06 M⁻¹ s⁻¹
